Read-outs that look alike come from different tables or passages of the source.
T1: mouse SIRPβ1 on CHO cells (mouse)
T1 construct: Whole entry
T1 chain: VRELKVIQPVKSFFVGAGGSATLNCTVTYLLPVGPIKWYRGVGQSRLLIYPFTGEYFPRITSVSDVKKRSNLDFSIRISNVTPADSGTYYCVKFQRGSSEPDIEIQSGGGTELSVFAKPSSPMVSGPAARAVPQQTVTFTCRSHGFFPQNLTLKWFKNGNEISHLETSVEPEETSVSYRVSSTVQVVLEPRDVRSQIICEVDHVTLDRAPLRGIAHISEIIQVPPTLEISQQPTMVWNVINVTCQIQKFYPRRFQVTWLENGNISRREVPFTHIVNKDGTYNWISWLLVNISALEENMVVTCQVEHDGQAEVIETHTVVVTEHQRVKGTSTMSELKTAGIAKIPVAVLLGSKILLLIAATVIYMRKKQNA

T2: mouse SIRPα on cells (mouse, UniProt P97797 32-513)
T2 construct: whole, on cells
T2 sequence (looked up): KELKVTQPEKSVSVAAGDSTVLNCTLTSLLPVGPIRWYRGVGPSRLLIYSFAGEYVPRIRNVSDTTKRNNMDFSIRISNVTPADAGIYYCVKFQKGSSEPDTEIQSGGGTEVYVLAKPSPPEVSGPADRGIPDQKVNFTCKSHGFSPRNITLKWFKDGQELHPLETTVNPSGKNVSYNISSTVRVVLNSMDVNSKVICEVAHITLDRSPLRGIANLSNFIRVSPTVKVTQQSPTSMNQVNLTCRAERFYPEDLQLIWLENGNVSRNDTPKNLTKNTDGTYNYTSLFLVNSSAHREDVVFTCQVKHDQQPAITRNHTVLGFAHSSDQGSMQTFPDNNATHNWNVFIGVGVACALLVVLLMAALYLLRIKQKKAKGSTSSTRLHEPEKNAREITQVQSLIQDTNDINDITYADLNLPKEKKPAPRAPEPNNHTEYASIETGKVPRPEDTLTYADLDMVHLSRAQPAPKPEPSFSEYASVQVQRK

T3: mouse SIRPα D1-Fc (mouse, UniProt P97797 32-150, limits assumed)
T3 construct: domain: D1
T3 sequence (looked up): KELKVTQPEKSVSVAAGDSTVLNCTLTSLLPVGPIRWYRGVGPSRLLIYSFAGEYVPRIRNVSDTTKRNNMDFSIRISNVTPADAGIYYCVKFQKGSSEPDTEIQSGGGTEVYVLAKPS

B1: SB-40 (antibody, V domains shown)
VH: QVQLVQSGAEVKKPGASVKVSCKASGYTFTSYYMSWVRQAPGQGLEWMGIINPSGGSTSYAQKFQGRVTMTRDTSTSTVYMELSSLRSEDTAVYYCARDTGEYSYSPHGMDVWGQGTTVTVSS
VL: EIVLTQSPATLSLSPGERATLSCRASQSVSSYLAWYQQKPGQAPRLLIYDSSNRATGIPARFSGSGSGTDFTLTISSLEPEDFAVYYCQQRDEHPPWTFGGGTKVEIK
notes: IgG; also called SB-40 (p)
B2: SB-8-16 Fab (Fab, V domains shown)
VH: QVQLQESGPGLVKPSETLSLTCAVSGYSISAHYYWGWIRQPPGKGLEWIGSIFHSGHTYYNPSLKSRVTISVDTSKNQFSLKLSSVTAADTAVYYCARAGAMTPAGMDVWGQGTTVTVSS
VL: EIVMTQSPGTLSLSPGERATLSCRASQSVSSSYLAWYQQKPGQAPRLLIYGASNRATGIPDRFSGSGSGTDFTLTISRLEPEDFAVYYCQQVYSSPYTFGGGTKVEIK
notes: Fab by papain digestion

Legend:
[1] = target: T4, human SIRPβ1 domain 1 (D1) Fc fusion (human, UniProt O00241 30-148); assay: Octet, IgG avid
T4 construct: Made in HEK293/T cells with a heterologous signal peptide; also called Human SIRPβ1 D1-Fc; Human SIRPβ1-Fc; not shown: C-terminal human IgG1 Fc
T4 sequence (O00241 30-148 limits assumed): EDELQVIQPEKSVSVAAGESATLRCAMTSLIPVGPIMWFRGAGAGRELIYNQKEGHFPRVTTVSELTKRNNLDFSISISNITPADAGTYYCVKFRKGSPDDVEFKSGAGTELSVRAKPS

[2] = target: T1, mouse SIRPβ1 on CHO cells; assay: flow cytometry
Procedure: (§1) Cells were then washed twice and incubated in 100 ul FACS buffer containing 0.5 μg/ml PE-conjugated secondary antibody for 30 minutes on ice. Cells were washed twice in cold FACS buffer and acquired on a BD FACS Canto. Data analysis and calculation of mean fluorescence intensity (MFI) values or 00 positive cells was performed with FlowJo (TreeStar) software version 10.0.7.
(§2) Given the high sequence similarity between receptors of the SIRPβ family, anti-SIRPβ1 antibodies were also screened for cross-reactivity to human SIRPα.

human SIRPα on cells [3] = target: T5, human SIRPα on cells (human, UniProt P78324 31-504); assay: flow cytometry
T5 construct: Whole entry
Procedure: as §1, §2

[4] = target: T6, human SIRPβ1 isoform 1 on cells (human, UniProt O00241 30-398); assay: flow cytometry
T6 construct: On CHO cells (low level), on BWZ/BW5147.G.1.4 cells (reporter cells co-express human DAP12) or on primary human myeloid cells; also called huSIRPβ1; BWZ-huSIRPβ1
T6 sequence (O00241 30-398): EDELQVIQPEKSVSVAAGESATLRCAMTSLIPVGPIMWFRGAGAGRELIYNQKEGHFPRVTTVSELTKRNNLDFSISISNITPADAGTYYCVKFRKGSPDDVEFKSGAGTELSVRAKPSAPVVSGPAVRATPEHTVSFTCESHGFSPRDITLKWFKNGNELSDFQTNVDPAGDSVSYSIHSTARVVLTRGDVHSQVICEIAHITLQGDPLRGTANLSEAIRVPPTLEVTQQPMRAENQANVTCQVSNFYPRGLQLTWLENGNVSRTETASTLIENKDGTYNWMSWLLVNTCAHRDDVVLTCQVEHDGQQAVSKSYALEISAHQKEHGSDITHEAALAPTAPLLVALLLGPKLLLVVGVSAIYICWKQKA
Procedure: as §1, §2

[5] = target: T1, mouse SIRPβ1 on CHO cells; assay: flow cytometry
mouse SIRPα on cells [6] = target: T2, mouse SIRPα on cells; assay: flow cytometry;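 on FOB: antibodies tested at 1 µg/ml for 30 min on ice against receptor-expressing cells, detected with a PE-labelled secondary antibody, read as mean fluorescence intensity relative to background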
human SIRPα on cells [7] = target: T5, human SIRPα on cells; assay: flow cytometry; remark: listed apart in the source
[8] = target: T1, mouse SIRPβ1 on CHO cells; assay: flow cytometry
Procedure: (§3) Initial characterization of anti-SIRPβ1 antibodies involved determining their ability to bind cell lines expressing human or mouse SIRPβ1. Cells were harvested, plated at 10⁶/ml in a 96-well plate, washed, and incubated in 100 μl FACS buffer containing 1 μg/ml anti-SIRPβ1 antibody for 0.5 hour on ice. Cells were then washed twice and incubated in 100 μl FACS buffer containing 0.5 μg/ml PE-conjugated secondary antibody for 30 minutes on ice. Cells were washed twice in cold FACS buffer and acquired on a BD FACS Canto. Data analysis and calculation of mean fluorescence intensity (MFI) values or 00 positive cells was performed with FlowJo (TreeStar) software version 10.0.7.
(§4) As a negative control, the anti-SIRPβ1 antibodies were also screened for surface binding to CHO cells overexpressing recombinant mouse SIRPβ31. […] Given the high sequence similarity between receptors of the SIRPβ family, anti-SIRPβ1 antibodies were also screened for cross-reactivity to human and mouse SIRPα.

mouse SIRPα on cells [9] = target: T2, mouse SIRPα on cells; assay: flow cytometry; remark: listed apart in the source;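 on FOB: antibodies tested at 1 µg/ml for 30 min on ice against receptor-expressing cells, detected with a PE-labelled secondary antibody, read as mean fluorescence intensity relative to background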
Procedure: as §3, §4

human SIRPα on cells [10] = target: T5, human SIRPα on cells; assay: flow cytometry; remark: listed apart in the source
Procedure: as §3, §4

[11] = target: T6, human SIRPβ1 isoform 1 on cells; assay: flow cytometry; remark: listed apart in the source
Procedure: as §3, §4

[12] = target: T6, human SIRPβ1 isoform 1 on cells; assay: cell binding titration; target not given
[13] = target: T7, human SIRPα domain 1 (D1) Fc fusion (human, UniProt P78324 32-149); assay: Octet, IgG avid
T7 construct: also called human SIRPα D1-Fc; Human SIRPα Fc; not shown: C-terminal human IgG1 Fc

[14] = target: T8, human SIRPβ1-Fc isoform 3 (Q5TFQ8) (human, UniProt Q5TFQ8 30-371, limits assumed); assay: ELISA on plate-coated huSirpB-Fc (Q5TFQ8.1), anti-human kappa-HRP, A450
T8 construct: Whole entry named; made in HEK293 cells; also called human SIRPβ1 isoform 3
T8 sequence (Q5TFQ8 30-371 limits assumed, one chain of several): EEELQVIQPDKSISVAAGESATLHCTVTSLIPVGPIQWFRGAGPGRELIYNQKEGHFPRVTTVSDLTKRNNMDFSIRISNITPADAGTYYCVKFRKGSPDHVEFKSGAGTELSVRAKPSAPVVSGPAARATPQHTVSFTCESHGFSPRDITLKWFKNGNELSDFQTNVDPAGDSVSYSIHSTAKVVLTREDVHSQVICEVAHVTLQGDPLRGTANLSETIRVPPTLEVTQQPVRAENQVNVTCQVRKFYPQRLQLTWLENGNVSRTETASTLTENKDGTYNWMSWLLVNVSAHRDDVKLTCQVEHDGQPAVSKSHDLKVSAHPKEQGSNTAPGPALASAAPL
Source text: Among the multiple SIRPβ1 isoforms catalogued, isoform 1 is the full-length version of the receptor primarily expressed in the periphery. Recombinant antigen based on the sequence of SIRPβ1 isoform 1 was used for selecting anti-SIRPβ1 antibodies from yeast library pools. To ascertain if the selected anti-SIRPβ1 antibodies cross-reacted with other isoforms of human SIRPβ1 or with cynomolgus SIRPβ1, recombinant antigens based on human SIRPβ1 isoform 3 sequence and cynomolgus SIRPβ1 isoform 1 sequence were produced by transient transfection in HEK293 cells. Purified, Fc-tagged recombinant proteins were adsorbed onto 96-well plates at 1 μg/mL overnight at 4° C. Plates were subsequently washed with PBS+0.05% Tween-20 and blocked with 1% BSA+PBS for 2 hours at room temperature. Antibodies diluted in blocking buffer at 1 μg/mL were added to wells, serially diluted, and allowed to bind antigen overnight at 4° C. The following day, the primary antibodies were removed and anti-human kappa light chain antibody conjugated to horseradish peroxidase diluted 1:10,000 in blocking buffer were added to wells and incubated for 1 hour at room temperature. Plates were washed with PBS+0.05% Tween-20 and 100 μL of TMB substrate solution was added to wells to generate a colorimetric signal proportional to amount of anti-SIRPβ1 antibody bound to antigen. […]

mouse SIRPα D1-Fc = target: T3, mouse SIRPα D1-Fc; assay: Octet
[15] = target: T9, Soluble, human SIRPβ1-Fc isoform 1 (O00241) (human, UniProt O00241 30-371, limits assumed); assay: ELISA, antigen coated
T9 construct: Whole entry named; also called human SIRPβ1 isoform 1
T9 sequence (O00241 30-371 limits assumed, one chain of several): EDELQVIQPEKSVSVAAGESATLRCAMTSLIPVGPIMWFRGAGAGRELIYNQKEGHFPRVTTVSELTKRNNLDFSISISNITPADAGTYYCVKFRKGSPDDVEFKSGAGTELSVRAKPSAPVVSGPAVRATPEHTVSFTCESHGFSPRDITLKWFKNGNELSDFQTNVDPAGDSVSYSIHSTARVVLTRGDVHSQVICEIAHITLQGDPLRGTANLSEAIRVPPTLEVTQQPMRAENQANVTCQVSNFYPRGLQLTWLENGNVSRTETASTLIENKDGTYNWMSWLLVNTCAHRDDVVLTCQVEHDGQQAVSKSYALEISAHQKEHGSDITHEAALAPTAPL
Source text: Recombinant antigen based on the sequence of SIRPβ1 isoform 1 was used for selecting anti-SIRPβ1 antibodies from yeast library pools. To ascertain if the selected anti-SIRPβ1 antibodies cross-reacted with other isoforms of human SIRPβ1 or with cynomolgus SIRPβ1, recombinant antigens based on human SIRPβ1 isoform 3 sequence and cynomolgus SIRPβ1 isoform 1 sequence were produced by transient transfection in HEK293 cells. Purified, Fc-tagged recombinant proteins were adsorbed onto 96-well plates at 1 μg/mL overnight at 4° C. Plates were subsequently washed with PBS+0.05% Tween-20 and blocked with 1% BSA+PBS for 2 hours at room temperature. Antibodies diluted in blocking buffer at 1 μg/mL were added to wells, serially diluted, and allowed to bind antigen overnight at 4° C. The following day, the primary antibodies were removed and anti-human kappa light chain antibody conjugated to horseradish peroxidase diluted 1:10,000 in blocking buffer were added to wells and incubated for 1 hour at room temperature. Plates were washed with PBS+0.05% Tween-20 and 100 μL of TMB substrate solution was added to wells to generate a colorimetric signal proportional to amount of anti-SIRPβ1 antibody bound to antigen. Once the reaction reached an appropriate color intensity, 100 μL of Stop solution was added to quench the enzyme.
Eight anti-SIRPβ1 antibodies (four parental antibodies and four corresponding affinity matured antibodies) were selected for analysis.

Human SIRPβ HIS = target: T10, Human SIRPβ HIS (human, UniProt O00241 30-148, limits assumed); assay: MSD-SET, Fab monovalent
T10 construct: detected with streptavidin, so biotinylated; also called recombinant human SIRPβ1; human SIRPβ1 monomer
T10 sequence (O00241 30-148 limits assumed): as the sequence (O00241 30-148 limits assumed) above

[16] = target: T4, human SIRPβ1 domain 1 (D1) Fc fusion; assay: Octet, Fab monovalent
Procedure: Briefly, Octet® affinity measurements were performed by loading IgGs on-line onto AHQ sensors. Sensors were equilibrated off-line in assay buffer for 30 min and then monitored on-line for 60 seconds for baseline establishment. For avid binding measurement, sensors with loaded IgGs were exposed to 100 nM antigen (human SIRPα or SIRPβ1 Fc fusion) for 3 min, and then transferred to assay buffer for 3 min for off-rate measurement. Additional avid binding was determined by loading biotinylated SIRPβ1 monomer on SA sensors and exposuring to 100 nM IgG in solution. Monovalent binding measurements were obtained by loading human SIRPβ1 Fc fusion antigens to AHQ sensor, followed by exposure to 100 nM anti-SIRPβ1 antibody Fab. Additional monovalent measurements were made by loading biotinylated human SIRPβ1 monomer to SA sensor followed by exposure to 100 nM Fab in solution. Kinetics data were fit using a 1:1 binding model in the data analysis software provided by ForteBio.

| Binder | Kd [1] [nM] | FOB [2] [fold over background] | FOB (human SIRPα on cells [3]) [fold over background] | FOB [4] [fold over background] | binding result [5] | binding result (mouse SIRPα on cells [6]) | binding result (human SIRPα on cells [7]) | FOB [8] [fold over background] | FOB (mouse SIRPα on cells [9]) [fold over background] | FOB (human SIRPα on cells [10]) [fold over background] | FOB [11] [fold over background] | EC50 [12] [nM] | binding result [13] | binding result [14] | binding result (mouse SIRPα D1-Fc) | EC50 [15] [nM] | Kd (Human SIRPβ HIS) [nM] | Kd [16] [nM] |
| --- | --- | --- | --- | --- | --- | --- | --- | --- | --- | --- | --- | --- | --- | --- | --- | --- | --- | --- |
| B1 | 9.64 | 1 | 1 | 2 | no binding (tested: 1 ug/ml) | no binding (tested: 1 ug/ml) | no binding (tested: 1 ug/ml) | 1.1 | 1.2 | 2.5 | 7 | 0.707 | no binding (tested: 100 nM) | no binding (tested: 1 ug/mL) | no binding (tested: 100 nM) | 0.04 |  |  |
| B2 |  |  |  |  |  |  |  |  |  |  |  |  |  |  |  |  | 0.055 | 2.32 |
